Here are results for 42 variants from the RNAGym collection of RNA variant scans (doi:10.1073/pnas.2313332121).

The chains are these.
B1: TPR t1 (parent)
chain: GACCAAUCUGCCCUCAGAGCUCGAGAACAUCUUCGGAUGCAGAGGAGGCAGGCUUCGGUGGCGCGAUAGCGCCAACGUCCUCAACCUCCAAUGCAUCCCACCACAUGAUGAUGCCUGAAGAGCCUUGGUUUUUUG

The variants in the data set derive from B1. Kind of data set: polymerase ribozyme fitness, log enrichment relative to wild type (log ratio); higher = more active; in vitro selection for triplet polymerase activity. An outline of the steps: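 Mutant libraries of each subunit of a heterodimeric triplet polymerase ribozyme were built by PCR and transcribed. Each library went through one round of in vitro selection in triplicate: annealing with biotinylated primer, partner subunit and triplets, frozen incubation at −7 °C, gel excision of extended constructs, streptavidin-bead capture and RT-PCR. Input and output libraries were Illumina-sequenced; only genotypes with ≥10 input reads and ≥1 read per output were kept. Fitness is log2(genotype enrichment/wild-type enrichment), using inverse-variance-weighted replicate averages.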
For the variant GACCAAUCUGCCGUCAGAGCUCGAGAACAUCUUCGGAUGCAGAGGAGGCAGGCUUCGGUGGCGCGAUAGCUCCAACGUCCUCAACCUCCAAUGCAUCCCACCACAUGAUGAUGCCUGAAGAGCCUUGGUUUUUUG, the “polymerase ribozyme fitness (log ratio)” value was -1.79.

GACCAAUCUGCCGUCAGAGCUCGAGAACAUCUUCGGAUGCAGAGGAGGCAGGCUUCGGUGGCCCGAUAGCGCCAACGUCCUCAAGCUCCAAUGCAUCCCACCACAUGAUGAAGCCUGAACAGCCUUGGUUUUUUG: the “polymerase ribozyme fitness (log ratio)” value is -1.45.

For the variant GACCAAUCUGCCGUCAGAGCUCGAGAACAUCUUCGGAUGCAGAGGAGGCAGGCUUCGGCGGCGCGAUAGCGCCAACGUCCUCAACCUCCAAUGCAUCCCACCACAUGAUGAUGCCUGAAGAGCCUUGGUUUUUUG, the “polymerase ribozyme fitness (log ratio)” value turned out to be 0.688.

As for GACCAAUCUGCCGUCAGAGCUCGAGAACAUCCUCGGAUGCAGAGGAGGCAGGAUUCGGUGGCGCGAUAGGGCCAACGUCCUCAACCUCCAAUGCAUCCCACCACAUGAUGAUGCCUGAAGAGCCUUGGUUUUUUG, the “polymerase ribozyme fitness (log ratio)” value is -3.88.

Take GACCAAUCUGCCGUCAGAGCUCGAGAACAUCUUCGGAUGCAGAAGAGCCAGGCUGCGGUGGCGCGAUAGCGCCAACGUUCUCAACCUCCAAUGCAUCCCACCACAUGAUGAUGCCUGAAGAGCGUUGGUUUUUUG: the “polymerase ribozyme fitness (log ratio)” value is -0.404.

Regarding GACCAAUCUGCCGUCAGAGCUCGAGAACAUCUUCGGAUUCAGAGGAGGCAGGCAUCGGUGGCGCGAUAGCGCCAACGUCCUCAACCUCCAAUGCAUCCCACCACAUGAUGAUGCCUGAAGAGCCUUGGUUUUUUG, the “polymerase ribozyme fitness (log ratio)” value is -2.59.

For the variant GACCAAUCUGCCUUCAGUGCUCGAGAACAUCUUCGGAUGCAGAGGAGGCAGGCUUCGGUGGCGCGAUAGCGCCAACGUCCGCAACCUCCAAUGCAUCCCACCACAUGAUGAUGCCUUAAGAGCCUUGGUUUUUUG, the “polymerase ribozyme fitness (log ratio)” value is -6.34.

With GACCAAUCUGCCGUCAGAGCACGAGAACAUCUUCGGAUGCAGAGGAGGCAGCCUUCGGUGGCGCGAUAGCGCCAACGUCCUCAACCUCCACUGCAUCCCACCACAUGAUGAUGCCUGAACAGCCUUGGUUUUUUG, the “polymerase ribozyme fitness (log ratio)” value was -3.21.

GACCAAUCUGCCGUCAGAGCUCGAGAACAUCUUCGGAUGCAGAGGAGGCAGGCCUCGGUGGCACGAUAGCGCCAACGUCCUCAACCUCCAAUGCAUCCCUCCACAUGAAGAUGCCUGAAGAGCCUUGGUUGUUUG: the “polymerase ribozyme fitness (log ratio)” value was -6.38.

With GACCAAUCUGCCGUCAGAGCUCGAGAACAUCUUCGGAUGCAGAGGAGGCAGGCUUCGGUGGCGCGAUAGCGCCAACGUCCUCAACCUCCAAUGCAUCCCACCACAUGAUGAUGCCUGAAUAGCCUUGGUUUUUUG, the “polymerase ribozyme fitness (log ratio)” value is -0.586.

As to GACCAAUCUGCCGUCAGAGCUCGAGAACAUCUUCGGAUGCAGAGGAGGCAGGCUUCGGUGGCGCGAUAGCGCCAACGUCCUCAACCUCCAAUGCAUCCCACCACAUGAUGAUGCCUGAACAGCCUUGGUUUUUUG, the “polymerase ribozyme fitness (log ratio)” value came out at 0.441.

GACCAAUCUGCCUUCAGAGCUCGAGUACAUCUUCGGAUGCAGAGGAGGCAGGCUUCGGUGGCGCGAUAGCGCCAACGUCCUCAACCUCCAAUGCAUCCCACCACAUGAUGAUGCCUGAAGAGCCUUGGUUUUUUG: the “polymerase ribozyme fitness (log ratio)” value was -3.03.

As to GACCAAUCUGCCGUCAGAGCUCGAGAACAUCUUCGGAUGCAGAGAAGACAGGCUUCGGUGCCGCGAUAGCGCCAACGUCCUCAACCUCCAAUGCAUCCCACCACAUGAUGAUGCCUGAAGAGCCUUGGUUUUUUG, the “polymerase ribozyme fitness (log ratio)” value was -3.73.

As to GACCAAUCUGCCGUCAGAGCUCGAGAACAUCUUCGGAUGCAGAGGAGGCAGUCUUCGGUGGCGCGAUAGCGCCAACGUCCUCAACCUCCAAUGCAUCCCACCACAUGAUGAUGCCUGAAGAGCCUUGGUUUUUUG, the “polymerase ribozyme fitness (log ratio)” value is -3.2.

Turning to GACCAAUCUGCCGUCAGAGCUCGAGAACAUCUUCGGAUGCAGAGGAGGCAGGCCUCGGUGGCGCGAUAGCGCCAACGUCCUCAAUCCCCAAUGCAUCCCACCACAUGAUGAUGCCUGAAGAGCCUUGGUUUUUUG, the “polymerase ribozyme fitness (log ratio)” value was -1.99.

For the variant GACCAAUCUGCCGUCAGAGCUCGAGAACAUCUUCGGAUGCAGAGGAGGCAGGCUUCGGUGACGCGAUAGCGCCAACGUCCUCAACCUCCAAUGGAUCCCACCACAUGAUGAUGCCAGAAGAGCCUUGGUUUUUUG, the “polymerase ribozyme fitness (log ratio)” value is -6.69.

For GACCAAUCUGCCGUCAGAGCUCGAGAACAUCUUCGUGUGCAGAGGAGGCAGGCUUCGGUGGCGCGAUAGCGCCAACGUCUUCAACCUCCAAUGCAUCCCACCACAUGAUGAUGCCUGAAGAGCCUUGGUUUUUUG, the “polymerase ribozyme fitness (log ratio)” value is -5.7.

For GACCAAUCUGCCGUCAGAGCUCGAGAACAUCUUCGGAUGCAGAGGAGGCAGGCUUCGGAGGGGCGAUAGCGCCAACGUCCUCAACCUCCAAUGCAUCCCACCACAUGAUGAUGCCUGAAGAGCCUUGGUUUUUUG, the “polymerase ribozyme fitness (log ratio)” value is -3.87.

As to GACCAAUCUGCCGUCAGAGCUCGAGAACAUCUUCGGAUGCAUAGGAGGUAGGCUUCGGUGUCGCGAUAGCGCCAACGUCCUCAACCUCCAAUGCAUCCCACCACAUGAUGAUGCCUGAAGAGCCUUGGUAUUUUG, the “polymerase ribozyme fitness (log ratio)” value was -4.93.

As to GACCAAUCUGCCGUCAGAGCUCGAGAACAUCUUCGGAUGCAGAGGAGGCAGGCUUCGGUGGCGCGAUAGCCCCAACGUCCUCAACCUCCAUUGCAUCCCACCACAUGAUGAUGCCUGAAGAGCCUUGGUUUUUUG, the “polymerase ribozyme fitness (log ratio)” value was -3.97.

Consider GACCAAUCUGCCGUCAGAGCUCGAGAACAUCUUCGGAUGCAGAGGACGCAGGCUUCGGUGGCGCGAUAGCGCCAACGUCCUCAACCUCCAAUGCAUCCCACCACAUGAUGAUGCCUGAAGAGCCUUGGUUUUUUG, for which the “polymerase ribozyme fitness (log ratio)” value was -3.71.

Regarding GACCAAUCUGCCGUCAGAGCUCGAGAACAUCCUCGGAUGCAGAGGUGGCAGGCUUCGGUGGCGCGAUAGAGCCAACGUCCUCAACCUCCAAUGCAUCCCACCAUAUGAUGAUGCCUGAAGAGCCUUGGUUUUUUG, the “polymerase ribozyme fitness (log ratio)” value was -3.75.

With GACCAAUCUGCCGUCAGAGCUCGAGAACAUCUUCGGAUGCAGAGGAGCCAGGCUUCGGUGGCUCGAUAGCGCCAACGUCCUCAACCUCCAAUGCAUCCCACCACCUGAUGAUGCCUGAAGAGCCUUGGUUUUUUG, the “polymerase ribozyme fitness (log ratio)” value is -5.9.

Take GACCAAUCUGCCGUCAGAGCUCGAGAACAUCUUCGGAUGCAGAGGAUGCAGGCUUCGGUGGCGCGAUAGCGCCAACGUCCUCAACCAUCAAUGCAUCCCACCACAUGAUUAUGCCUGAAGAGCCUUGGUUUUUUG: the “polymerase ribozyme fitness (log ratio)” value was -6.69.

Consider GACCAAUCUGCCUUCAGAGCUCGAGAACAUCUUCGGAUGCAGAGGAGGCAGGCUUCGGUGGCGCGAUAGCGCCAACGUCCUCAACCUCCAAUGCAUCCCACCACAUGAUGAUGCCUGAAGAGCCUUGGUUUUUUG, for which the “polymerase ribozyme fitness (log ratio)” value was determined as 0.225.

For the variant GACCAAUCUGCCUUCAGUGCUCGAGAACAUCUUCGGAUGCAGAGGAGGCAGGCUUCGGUGGCGCGAUAGCGCCAACGUCCUCAACCUCCAAUGCAUCCCACCACAUGAUGAUGCCUGAAGAGCCUUGGUUUUUUG, the “polymerase ribozyme fitness (log ratio)” value is -0.945.

GACCAAUCUGCCGUCAGAGCUCGAGAACAUCUUCGGAUGCAGAGGAGGCAGGCUUCGGUAGCGCGAUAGCGCCAACCUCCUCAACCUCCAAUGCAUCCCACCACAUGAUGAUGCCUGAAGAGCCUUGGUCUUUUG: the “polymerase ribozyme fitness (log ratio)” value is -3.08.

As to GACCAAUCUGCCGUCAGAGCUCGAGAACAUCUUCGGAUGCAGAGGAGGCAGGCUUCGGUGGCGCGAUAGCGCCAACGUCCUCAACCUCCAAUGCAUCCCACCACAUGAUGAUACCUGCAGAGCCUUGGUUUUUUG, the “polymerase ribozyme fitness (log ratio)” value is -4.34.

On to GACCAAUCUGCCUUCAGAGCUCGAGGACAUCUUCGGAUGCAGAGGAGGCAGGCUUCGGUGGCCCGAUAGCGCCAACGUCCACAACCUCCAAUGCAUCCCACCACAUGAUGAUGCCUCAAGAGCCUUGGUUUUUUG, for which the “polymerase ribozyme fitness (log ratio)” value is -6.91.

With GACCAAUCUGCCGUCAGAGCUCGAGAACAUCUUCGUAUGCAGAGGAGGCAGGCUUCGGUAGCGCGAUAGCGCCAACGUCCUCAACCUCCAAUGCAUCCCACCACAUGAUUAUGCCUGAAGAGCCUUGGUUUUUUG, the “polymerase ribozyme fitness (log ratio)” value was -4.24.

For GACCAAUCUGCCGUCAGAGCUCGAGAACAUCUUCGGAUGCAGAGGAGGCAGGCUUCGGUGGCGCGAUAGCGCCAACGUCCUCAACCUCCAAUGCAUCCCACCACAUGAUAAUGCCUGAAGAGCCUUGGUUUUUUG, the “polymerase ribozyme fitness (log ratio)” value is -1.87.

For GACCAAUCUGCCGUCAGAGCUCGAGAACAUCUUCGGAUGCAGAGGAGGCAGGCUUCGAUGGCGCGAUAGUGCCAACGUCCUCAACCUCCAAUGCAUCCCACCACCUGAUGAUGCCUGAAGAGCAUUAGUUUUUUG, the “polymerase ribozyme fitness (log ratio)” value is -4.77.

Take GACCAAUCUGCCGUCAGAGCUCGAGAACAUCUUCGGAUGCAGAUGAGGCAGGCUUCGGUGGCGCGAUAGCGCCAACGUCCUAAACCUCCAAUGCAUCCCACCACAUGAUGAUGCCUGAAGAGCCUUGGUUUUUUG: the “polymerase ribozyme fitness (log ratio)” value is -3.4.

Take GACCAAUCUGCCGUCAGAGCUCGAGAACAUCUUCGGAUGCAGAGGAGGCACGCUUCGGUGCCGCGAUAGCGCCAACGUCCUCAACCUCCAAUGCAUCCCACCAUAUGAUGAUGCCUGAACAGCCUUGGUUUUUUG: the “polymerase ribozyme fitness (log ratio)” value is -6.03.

With GACCAAUCUGCCGUCAGAGCUCGAGAACAUCUUCGGAUGCAGAGUAGGCAGGCUUCGGUGGCGCGAUAGCGCCAACGUCCUCAACCUCAAAUGCAUCCCACCACAUGAUGAUGCCUGAAUAGCCUUGGUAUUUUG, the “polymerase ribozyme fitness (log ratio)” value was -3.41.

Regarding GACCAAUCUGCCGUCAGAGCUCGAGAACAUCUUCGGAUGCAGAGGAGGCAGGCUUCCGUGGCGCGAUAGCGCAAACGUCCUCAACCUCCAAUGCAUCCCACCACAUGAUAAUGCCUGAAGAGCCUUGGUUUUUUG, the “polymerase ribozyme fitness (log ratio)” value is -2.44.

As to GACCAAUCUGCCUUCAGUGCUCGAGAACAUUUUCGGAUGCAGAGGAGGCAGGCUUCGGUGGCGGGAUAGCGCCAACGUCCUCAACCUCCAAUGCAUCCCACCCCAUGAUAAUGCCUGAAGAGCCUUGGUUUUUUG, the “polymerase ribozyme fitness (log ratio)” value is -5.64.

On to GACCAAUCUGCCGUCAGAGCUCGAGAACAUCUUCGGAUGCAGAGGAGGCAGGCUUCGGUCGCGCGAUAGCGCCAACGUCCUCAACCUCCAAUGCAUCCCACCACAUGAUGAUGCCUGAAGAGCCUUGGUUUUUUG, for which the “polymerase ribozyme fitness (log ratio)” value was -1.52.

For GACCAAUCUGCCUUCCGAGCUCGAGAACAUCUUCGGAUGCAGAGGAGCCAGGCUUCGGGUGCGCGAUAGCGCCAACGUCCUCAACCUCCAAUGCAUCCCCCCACAUGAUGAUGCCUGAAGCGCCUUGGUUUUUUG, the “polymerase ribozyme fitness (log ratio)” value was -0.128.

Regarding GACCAAUCUGCCGUCAGAGCUCGAGAACAUCUUCGGAUGCAGAGGAGGCAGGCUUCGGUGGCGCGAUAGCGCCAACGUCCUCAACCUCCAAUGCAUCCCACCACAUGAUGAUGCCUAAAGAGCCUUGGUUUUUUG, the “polymerase ribozyme fitness (log ratio)” value was -1.95.

As for GACCAAUCUGCCGUCAGAGCUCGAGAACAUCUUCGGAUGCAGAGGAGGCAGUCUUCGGUAGCGCGAUAGCGCCAACGUCCUCAACCUCCAAUGCAUCCCACCAUAUGAUGAUGCGUGAAGCGCCUUGGUUUUUUG, the “polymerase ribozyme fitness (log ratio)” value was -3.16.

On to GACCAAUCUGCCGUCAGAGCUCGAGAACAUCUUCGGAUUCAGAGGAGGCAGGCUUCGGUGGCGCGAUAGCGCCAACGUCCUCAACCUCCAAUGCAUCCCACCACAUGAUGAUGCUUGAAGAGCCUUGGUUUUUUG, for which the “polymerase ribozyme fitness (log ratio)” value was -2.63.
